Test results published in the DeepSol protein solubility set.

experiment: soluble on expression in E. coli; label from the status in PepcDB or PDB records

**Q.** With “MGHHHHHHSHMSLDINQIALHQLIKRDEQNLELVLRDSLLEPTTTVVEMVAELHRVYSAKNKAYGLFNEESELAQALRLQRQGEEDFLAFSRAATGRLRDELAKYPFADGGIVLFCHYRYLAVEYLLVTVLNNLSSMRVNENLDINPTHYLDINHADIVARIDLTEWETNPQSTRYLTFLKGRVGRKVADFFMDFLGASEGLNAKAQNRGLLQAVDDFTAEAQLDKAERQNVRQQVYSYCNEQLQAGEEIELESLSKELSGVSEVSFSEFTAEKGYELEESFPADRSTLRQLTKYAGSGGGLTINFDAMLLGERIFWDPATDTLTIKGTPPNLRDQLQRRTSGGK” as the sequence, how does the “soluble on expression in E. coli” value read?
**A.** Its value is “soluble”.

**Q.** Which “soluble on expression in E. coli” value does the source give for “MIFLNRERKGETNDHFDVNRVKFDDLGIPQDTGGLNRIRFKGENLGIMPTQLGHITPWLYRHFEYAYHVALQFNQHQKFQKLQKLRKLQKELPIAERAGEIVELLKTNQVLIVAGDTGCGKSTQVPQYLLKAGFTGVACTQPRRIACTALARRVAYETLNQYGSEVAFQIRFETTKSQKTKLLFLTEGLLLRQMEKDSLLEKYNVIILDEVHERHLTSDLLIGLLRDLCTKRDDLKLILMSATINLDLFKGYFEGAPVVQVPGRLFPIDVRWHPIKQFIDQSDKKTHKIDPEPYLKILELIDKQFPSTQRGDALIFLNGVAEISMVAEHLKNYAELTNGWIILMLHSTLSVEEQDKVFDQAPVGIRKCILSTNVAETSVTIDGIRFVIDSGKVNLIKHEPGTGTQKLTEFWVSKASANQRKGRAGRTGPGICYRLYSQEQFEKMDDFTVSEINRVSLQEMALKMISLNLGLDPRTFPFIEKPSEDVLNEGLEVLKFQRVLRSDRGDILTLTALGNMVSKLPVEVPIAKMLVYGCVVDELEVMLTVAAGLSVQSPFTNRSYRELEIVERRASLTSPLGDPFTLISIFREWVLQKAFEGTARRWTMENGIDEHRLYEISKLRAQYRQILEDAGLVEKASAAETGEDDSRQRRIDQGEKRKLFDLKKSQRNNDRRQKVLNANKHFDKILEDKEEEDLEAEKDPLKADVKTVEFLLSHKQRDVENIRKTHKISRKTAEVVRVIIAAGLYPNFSILDPVNKYGYGQEMFTHTRLKPFTQIHPNSSIAQYHPETIDPRQGSDGFSRLHQIPFYGLLLETTKPYICNVMPVPAVYTLLVAQKIVIEDDWSQLSIDDFLELRFRSSTDCRSVLLDAKEIRYELTKGLAAKLVGEAGFSGRRRLAKYIDLLNQSIVEKGIEVAVRRNVHPPKVLTGIGIHSPDGGIDKEEDVDDLVQRFERDQEPVHSAREEELEDQKVLDELRADVMCPPTRDMIEEAEKLKELKKKEIPKESYYEKLLKRQKAKEDDEKTEKKPKLEPLDTMEE” here?
**A.** The value was “soluble”.

**Q.** With “ADAYFYNPITSQRSNFPLSYPMTAKSFMEKHGLLDREEYLKRLAENENNVELVNYPLEKLEFNRRVNKLNVLMISVNNLRADALNQEEMPNLYEFAQQNQNFRKHYSSSNDTYGAFGLFYGLPTSYASSIKAQGASPVLLDVLKDQGYTFGLFSGSGFEDDLYSEIVFRGVNLAEKLDGTQAHTDKQSIADWNMWLTEKANQPWFSYIEVTTVDNFESIPSNSKEDMSASERFKNAYEFAVKSADDKVGGIIKTLEDAQLLANTVVIVTSNHGSEFNETNTNSWGANSNYSRYQLQVPMVIHWPGMMAGEFNHSTSHLDLSVTLLQDMLGVSSNPYDYSSGRNLFDESRRRWILAGDTRELALITNNQTTVIDKFGNYKLYDENYKRMRDETPKLPVLMQGLTELQRFYSKSE” as the sequence, how does the “soluble on expression in E. coli” value read?
**A.** The value was “not soluble”.

**Q.** With “MGSDKIHHHHHHMSIYNSIGKQYSQTRVPDIRIVNAIINLLNLPKGSVIADIGAGTGGYSVALANQGLFVYAVEPSIVMRQQAVVHPQVEWFTGYAENLALPDKSVDGVISILAIHHFSHLEKSFQEMQRIIRDGTIVLLTFDIRLAQRIWLYDYFPFLWEDALRFLPLDEQINLLQENTKRRVEAIPFLLPHDLSDLFAAAAWRRPELYLKAEVRAGISSFALANQDLVEKGLELLTADLNNGEWIRKYGEIHHLQEIDIGYRFIYTTLDK” as the sequence, how does the “soluble on expression in E. coli” value read?
**A.** The value was “not soluble”.

**Q.** For “MTTVSVQIPAGWPATEERARAVQDELRARVVLDEPGPPPGTGRVTGVDVAYDDERDVVAAAAVVLDAGTLAVVAEATAVGRISFPYVPGLLAFREIPTVLAALEALPCPPGLVVCDGYGLAHPRRFGLASHLGVLTGLPTIGVAKNPFTFTHDDPDTPRGSTSPLLAGAEEVGRAVRTRDGVKPVFVSVGHRVGLGNACAHTLALTPAYRLPETTRRADALCRAALRDAAYRALEHHHHHH”, which “soluble on expression in E. coli” value is on record?
**A.** The value was “not soluble”.
